Results taken from the supplement of paper PMC9112550, “Optimization of the antimicrobial peptide Bac7 by deep mutational scanning” (BMC Biology, 2022).

Test system: Escherichia coli TOP10
Assay: shrunken log2 fold change of peptide-encoding DNA abundance (4.5 h post-induction vs induction); higher = less antimicrobial activity (less host growth inhibition)
Conditions: time post-induction: 4.5 h; library: site-saturation at positions 5, 18, 19, 20
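Also: peptides expressed intracellularly from a pBAD plasmid library in pooled LB shake-flask culture, induced with 0.3% L-arabinose, DNA abundance read by NGS, three biological replicates, DESeq2 with apeglm shrinkage.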

Question: Which “shrunken log2 fold change” value does the source give for RRIRRRPPRLPRPRPRPECFPRP here?
Answer: The value was 0.3.

Question: Which “shrunken log2 fold change” value does the source give for RRIRRRPPRLPRPRPRPEDCPRP here?
Answer: Its value is -0.0482.

Question: How did the “shrunken log2 fold change” value turn out when RRIRRRPPRLPRPRPRPEEPPRP was run?
Answer: Its value is 0.24.

Question: How did the “shrunken log2 fold change” value turn out when RRIRRRPPRLPRPRPRPEEVPRP was run?
Answer: Its value is 0.0988.

Question: RRIRRRPPRLPRPRPRPEFEPRP was tested. Which “shrunken log2 fold change” value did it give?
Answer: Its value is 0.37.

Question: RRIRRRPPRLPRPRPRPEFGPRP was tested. Which “shrunken log2 fold change” value did it give?
Answer: The value was 0.376.

Question: With RRIRRRPPRLPRPRPRPEFTPRP as the sequence, how does the “shrunken log2 fold change” value read?
Answer: Its value is 0.0132.

Question: RRIRRRPPRLPRPRPRPEGHPRP was tested. Which “shrunken log2 fold change” value did it give?
Answer: Its value is 0.488.

Question: RRIRRRPPRLPRPRPRPEGPPRP was tested. Which “shrunken log2 fold change” value did it give?
Answer: The value was 0.568.

Question: How did the “shrunken log2 fold change” value turn out when RRIRRRPPRLPRPRPRPEHTPRP was run?
Answer: Its value is -0.0248.

Question: How did the “shrunken log2 fold change” value turn out when RRIRRRPPRLPRPRPRPEMHPRP was run?
Answer: Its value is 0.705.

Question: With RRIRRRPPRLPRPRPRPEPHPRP as the sequence, how does the “shrunken log2 fold change” value read?
Answer: Its value is 0.315.

Question: For RRIRRRPPRLPRPRPRPEQKPRP, which “shrunken log2 fold change” value is on record?
Answer: Its value is 0.0588.

Question: How did the “shrunken log2 fold change” value turn out when RRIRRRPPRLPRPRPRPEQRPRP was run?
Answer: The value was 0.272.

Question: RRIRRRPPRLPRPRPRPEQTPRP was tested. Which “shrunken log2 fold change” value did it give?
Answer: The value was -0.01.

Question: For RRIRRRPPRLPRPRPRPEQYPRP, which “shrunken log2 fold change” value is on record?
Answer: The value was 0.17.

Question: With RRIRRRPPRLPRPRPRPESRPRP as the sequence, how does the “shrunken log2 fold change” value read?
Answer: Its value is 0.0681.

Question: Which “shrunken log2 fold change” value does the source give for RRIRRRPPRLPRPRPRPEVGPRP here?
Answer: Its value is 0.946.

Question: For RRIRRRPPRLPRPRPRPEVNPRP, which “shrunken log2 fold change” value is on record?
Answer: The value was -0.0845.

Question: Which “shrunken log2 fold change” value does the source give for RRIRRRPPRLPRPRPRPEWTPRP here?
Answer: Its value is 0.0215.

Question: Which “shrunken log2 fold change” value does the source give for RRIRRRPPRLPRPRPRPEYEPRP here?
Answer: The value was -0.022.

Question: For RRIRRRPPRLPRPRPRPFAVPRP, which “shrunken log2 fold change” value is on record?
Answer: Its value is 0.0874.

Question: How did the “shrunken log2 fold change” value turn out when RRIRRRPPRLPRPRPRPFCSPRP was run?
Answer: Its value is -0.0439.

Question: With RRIRRRPPRLPRPRPRPFEAPRP as the sequence, how does the “shrunken log2 fold change” value read?
Answer: Its value is 1.04.

Question: With RRIRRRPPRLPRPRPRPFFCPRP as the sequence, how does the “shrunken log2 fold change” value read?
Answer: The value was 0.167.

Question: Which “shrunken log2 fold change” value does the source give for RRIRRRPPRLPRPRPRPFFEPRP here?
Answer: Its value is 0.18.

Question: With RRIRRRPPRLPRPRPRPFGKPRP as the sequence, how does the “shrunken log2 fold change” value read?
Answer: The value was 0.0788.

Question: Which “shrunken log2 fold change” value does the source give for RRIRRRPPRLPRPRPRPFLAPRP here?
Answer: Its value is 0.925.

Question: How did the “shrunken log2 fold change” value turn out when RRIRRRPPRLPRPRPRPFLEPRP was run?
Answer: The value was 0.0277.

Question: RRIRRRPPRLPRPRPRPFMIPRP was tested. Which “shrunken log2 fold change” value did it give?
Answer: The value was -0.394.

Question: RRIRRRPPRLPRPRPRPFMLPRP was tested. Which “shrunken log2 fold change” value did it give?
Answer: The value was 0.0692.

Question: How did the “shrunken log2 fold change” value turn out when RRIRRRPPRLPRPRPRPFPEPRP was run?
Answer: Its value is 0.212.

Question: Which “shrunken log2 fold change” value does the source give for RRIRRRPPRLPRPRPRPFQCPRP here?
Answer: Its value is -0.00197.

Question: RRIRRRPPRLPRPRPRPFQPPRP was tested. Which “shrunken log2 fold change” value did it give?
Answer: The value was 0.331.

Question: How did the “shrunken log2 fold change” value turn out when RRIRRRPPRLPRPRPRPFRSPRP was run?
Answer: The value was -0.0534.

Question: With RRIRRRPPRLPRPRPRPFSKPRP as the sequence, how does the “shrunken log2 fold change” value read?
Answer: The value was -0.348.

Question: Which “shrunken log2 fold change” value does the source give for RRIRRRPPRLPRPRPRPFSSPRP here?
Answer: Its value is -0.0604.

Question: With RRIRRRPPRLPRPRPRPFSYPRP as the sequence, how does the “shrunken log2 fold change” value read?
Answer: The value was 0.016.

Question: For RRIRRRPPRLPRPRPRPFTIPRP, which “shrunken log2 fold change” value is on record?
Answer: The value was 0.0518.

Question: For RRIRRRPPRLPRPRPRPFWEPRP, which “shrunken log2 fold change” value is on record?
Answer: Its value is -0.0438.

Question: For RRIRRRPPRLPRPRPRPFWGPRP, which “shrunken log2 fold change” value is on record?
Answer: The value was 0.463.

Question: With RRIRRRPPRLPRPRPRPFWVPRP as the sequence, how does the “shrunken log2 fold change” value read?
Answer: Its value is 0.236.

Question: For RRIRRRPPRLPRPRPRPFYCPRP, which “shrunken log2 fold change” value is on record?
Answer: Its value is -0.162.

Question: For RRIRRRPPRLPRPRPRPGCIPRP, which “shrunken log2 fold change” value is on record?
Answer: Its value is 0.0498.

Question: RRIRRRPPRLPRPRPRPGDQPRP was tested. Which “shrunken log2 fold change” value did it give?
Answer: Its value is 0.272.

Question: For RRIRRRPPRLPRPRPRPGEEPRP, which “shrunken log2 fold change” value is on record?
Answer: Its value is 0.139.

Question: How did the “shrunken log2 fold change” value turn out when RRIRRRPPRLPRPRPRPGENPRP was run?
Answer: Its value is 0.066.

Question: For RRIRRRPPRLPRPRPRPGFFPRP, which “shrunken log2 fold change” value is on record?
Answer: The value was 0.268.

Question: RRIRRRPPRLPRPRPRPGFLPRP was tested. Which “shrunken log2 fold change” value did it give?
Answer: Its value is -0.0551.

Question: For RRIRRRPPRLPRPRPRPGFTPRP, which “shrunken log2 fold change” value is on record?
Answer: The value was 0.00987.

Question: RRIRRRPPRLPRPRPRPGGHPRP was tested. Which “shrunken log2 fold change” value did it give?
Answer: The value was 0.499.

Question: For RRIRRRPPRLPRPRPRPGGYPRP, which “shrunken log2 fold change” value is on record?
Answer: Its value is -0.0378.

Question: RRIRRRPPRLPRPRPRPGHAPRP was tested. Which “shrunken log2 fold change” value did it give?
Answer: Its value is 0.398.

Question: Which “shrunken log2 fold change” value does the source give for RRIRRRPPRLPRPRPRPGIDPRP here?
Answer: Its value is -0.0704.

Question: RRIRRRPPRLPRPRPRPGIFPRP was tested. Which “shrunken log2 fold change” value did it give?
Answer: Its value is -0.174.

Question: For RRIRRRPPRLPRPRPRPGIMPRP, which “shrunken log2 fold change” value is on record?
Answer: Its value is 0.156.

Question: With RRIRRRPPRLPRPRPRPGIPPRP as the sequence, how does the “shrunken log2 fold change” value read?
Answer: The value was 0.322.

Question: RRIRRRPPRLPRPRPRPGIRPRP was tested. Which “shrunken log2 fold change” value did it give?
Answer: Its value is 0.108.

Question: RRIRRRPPRLPRPRPRPGLKPRP was tested. Which “shrunken log2 fold change” value did it give?
Answer: The value was 0.377.

Question: Which “shrunken log2 fold change” value does the source give for RRIRRRPPRLPRPRPRPGNWPRP here?
Answer: Its value is 0.393.

Question: For RRIRRRPPRLPRPRPRPGPMPRP, which “shrunken log2 fold change” value is on record?
Answer: The value was 0.353.

Question: Which “shrunken log2 fold change” value does the source give for RRIRRRPPRLPRPRPRPGPQPRP here?
Answer: Its value is 0.337.

Question: RRIRRRPPRLPRPRPRPGQIPRP was tested. Which “shrunken log2 fold change” value did it give?
Answer: The value was 0.0802.

Question: How did the “shrunken log2 fold change” value turn out when RRIRRRPPRLPRPRPRPGQVPRP was run?
Answer: Its value is 0.239.

Question: For RRIRRRPPRLPRPRPRPGRIPRP, which “shrunken log2 fold change” value is on record?
Answer: The value was 0.0214.

Question: How did the “shrunken log2 fold change” value turn out when RRIRRRPPRLPRPRPRPGRLPRP was run?
Answer: Its value is 0.728.

Question: How did the “shrunken log2 fold change” value turn out when RRIRRRPPRLPRPRPRPGRTPRP was run?
Answer: The value was 0.315.

Question: For RRIRRRPPRLPRPRPRPGSNPRP, which “shrunken log2 fold change” value is on record?
Answer: Its value is 0.0402.

Question: RRIRRRPPRLPRPRPRPGTCPRP was tested. Which “shrunken log2 fold change” value did it give?
Answer: The value was -0.087.

Question: With RRIRRRPPRLPRPRPRPGTSPRP as the sequence, how does the “shrunken log2 fold change” value read?
Answer: Its value is 0.0636.

Question: For RRIRRRPPRLPRPRPRPGVQPRP, which “shrunken log2 fold change” value is on record?
Answer: Its value is -0.00257.

Question: With RRIRRRPPRLPRPRPRPGWHPRP as the sequence, how does the “shrunken log2 fold change” value read?
Answer: The value was 0.176.

Question: Which “shrunken log2 fold change” value does the source give for RRIRRRPPRLPRPRPRPGWVPRP here?
Answer: Its value is 0.359.

Question: RRIRRRPPRLPRPRPRPGYRPRP was tested. Which “shrunken log2 fold change” value did it give?
Answer: Its value is -0.119.

Question: For RRIRRRPPRLPRPRPRPHAEPRP, which “shrunken log2 fold change” value is on record?
Answer: Its value is 0.317.
